According to patent US20250320281A1:

Tests used:
Experiment in all cases: cell-based or functional assay
[1] = target: HIV-1 Env of isolate 92RW021 (clade A pseudovirus) (HIV-1)
[2] = target: HIV-1 Env of isolate 92UG005 (clade D pseudovirus) (HIV-1)
[3] = target: HIV-1 Env of isolate 92UG046 (clade D pseudovirus) (HIV-1)
[4] = target: HIV-1 Env of isolate 93MW959 (clade C) (HIV-1 isolate 93MW959)
[5] = target: HIV-1 Env of isolate 93TH305, clade B, on pseudovirus (HIV-1)
[6] = target: HIV-1 Env of isolate LAVIC_18 (HIV-1)
[7] = target: HIV-1 Env of isolate MGRM-Chronic-B-008, clade B, on pseudovirus (HIV-1)
[8] = target: HIV-1 Env of isolate MGRM-D-002 (clade D pseudovirus) (HIV-1)
[9] = target: HIV-1 Env of isolate MGRM-D-013 (clade D pseudovirus) (HIV-1)
[10] = target: HIV-1 Env of isolate MGRM-D-020 (clade D pseudovirus) (HIV-1)
[11] = target: HIV-1 Env of isolate MGRM-D-022 (clade D pseudovirus) (HIV-1)
[12] = target: HIV-1 Env of isolate MGRM-D-026 (clade D pseudovirus) (HIV-1)
[13] = target: HIV-1 Env of isolate NL43, clade B, on pseudovirus (HIV-1)
[14] = target: HIV-1 Env of pseudovirus MGRM-F1-006 (HIV-1)
[15] = target: HIV-1 Env of pseudovirus MGRM-F1-008 (HIV-1)
[16] = target: HIV-1 Env of pseudovirus MGRM-F1-015 (HIV-1)
[17] = target: HIV-1 Env of pseudovirus MGRM-F1-020 (HIV-1)
[18] = target: HIV-1 Env of pseudovirus MGRM-G-009 (clade G) (HIV-1)
[19] = target: HIV-1 Env of pseudovirus MGRM-G-027 (HIV-1, clade G isolate MGRM-G-027)
[20] = target: HIV-1 envelope glycoprotein (Env) of isolate 94KE105, listed under clade A (HIV-1)
[21] = target: HIV-1 envelope glycoprotein (Env) of isolate MGRM-A-011, clade A (HIV-1)
[22] = target: aMLV envelope protein on pseudovirus (negative control)
[23] = target: HIV-1 Env of isolate 93TH305 (HIV-1)
[24] = target: HIV-1 Env of isolate MGRM-G-024 (HIV-1)
[25] = target: HIV-1 NL43 Env (pseudovirus, clade B) (HIV-1)
[26] = target: HIV-1 Env of isolate MGRM-D-003 (pseudovirus) (HIV-1)
[27] = target: HIV-1 Env of isolate MGRM-D-020 (pseudovirus) (HIV-1)
[28] = target: HIV-1 Env of isolate MGRM-D-022 (pseudovirus) (HIV-1)
[29] = target: HIV-1 Env of isolate MGRM-F1-006 (pseudovirus) (HIV-1)
[30] = target: HIV-1 Env of isolate MGRM-F1-016 (HIV-1)
[31] = target: HIV-1 Env of isolate VLGCB3 (subtype B pseudovirus) (HIV-1)

| Substance | IC50 (µg/ml), pseudovirus neutralization [1] | IC50 (µg/ml), pseudovirus neutralization [2] | IC50 (µg/ml), pseudovirus neutralization [3] | IC50 (µg/ml), pseudovirus neutralization [4] | IC50 (µg/ml), pseudovirus neutralization [5] | IC50 [6] | IC50 (µg/ml), pseudovirus neutralization [7] | IC50 (µg/ml), pseudovirus neutralization [8] | IC50 (µg/ml), pseudovirus neutralization [9] | IC50 (µg/ml), pseudovirus neutralization [10] | IC50 (µg/ml), pseudovirus neutralization [11] | IC50 (µg/ml), pseudovirus neutralization [12] | IC50 (µg/ml), pseudovirus neutralization [13] | IC50 (µg/ml), pseudovirus neutralization [14] | IC50 (µg/ml), pseudovirus neutralization [15] | IC50 (µg/ml), pseudovirus neutralization [16] | IC50 (µg/ml), pseudovirus neutralization [17] | IC50 [18] | IC50 (µg/ml), pseudovirus neutralization [19] | IC50 (µg/ml), pseudovirus neutralization [20] | also measured |
| --- | --- | --- | --- | --- | --- | --- | --- | --- | --- | --- | --- | --- | --- | --- | --- | --- | --- | --- | --- | --- | --- |
| 2F5 (antibody) | 4.16 µg/mL | 8.61 µg/mL | > 50 µg/mL | > 50 µg/mL | 7.61 µg/mL | > 50 µg/mL | > 50 µg/mL | 24.6 µg/mL | 2.12 µg/mL | > 50 µg/mL | 8.45 µg/mL | 4.37 µg/mL | 2.02 µg/mL | 1.1 µg/mL | 1.61 µg/mL | 0.1 µg/mL | 0.59 µg/mL | 7.21 µg/mL | 0.28 µg/mL | > 50 µg/mL | IC50 (µg/ml), pseudovirus neutralization [21]: > 50 µg/mL; IC90 (pseudovirus neutralization) [22]: > 50 µg/mL |
| 2G12 (antibody) | > 50 µg/mL | > 50 µg/mL | > 50 µg/mL | > 50 µg/mL | 0.55 µg/mL | > 50 µg/mL | 0.55 µg/mL | > 50 µg/mL | > 50 µg/mL | > 50 µg/mL | > 50 µg/mL | > 50 µg/mL | 0.49 µg/mL | > 50 µg/mL | > 50 µg/mL | > 50 µg/mL | > 50 µg/mL | > 50 µg/mL | > 50 µg/mL | 7.22 µg/mL | IC50 (µg/ml), pseudovirus neutralization [21]: > 50 µg/mL; IC90 (pseudovirus neutralization) [22]: > 50 µg/mL |
| 4E10 (antibody) | 4.87 µg/mL | 7.46 µg/mL | 12.2 µg/mL | 4.55 µg/mL | 12.3 µg/mL | > 50 µg/mL | 16.7 µg/mL | 9.44 µg/mL | 5.38 µg/mL | > 50 µg/mL | 16.9 µg/mL | 2.95 µg/mL | 4.67 µg/mL | 1.01 µg/mL | 2.75 µg/mL | 0.53 µg/mL | 0.66 µg/mL | 1.34 µg/mL | 1.19 µg/mL | 7.63 µg/mL | IC50 (µg/ml), pseudovirus neutralization [21]: 2.88 µg/mL; IC90 (pseudovirus neutralization) [22]: > 50 µg/mL |
| 1495_C14 (PGC14) (antibody) | > 50 µg/mL | > 50 µg/mL | > 50 µg/mL | > 50 µg/mL | 6 µg/mL | > 50 µg/mL | > 50 µg/mL | 29 µg/mL | > 50 µg/mL | > 50 µg/mL | > 50 µg/mL | > 50 µg/mL | 40 µg/mL | > 50 µg/mL | > 50 µg/mL | > 50 µg/mL | > 50 µg/mL | > 50 µg/mL | > 50 µg/mL | > 50 µg/mL | IC50 (µg/ml), pseudovirus neutralization [21]: > 50 µg/mL |
| 1496_C09 (PG9) (TCN-109) (antibody) | 0.05 µg/mL |  | 0.64 µg/mL | 0.04 µg/mL | 2.08 µg/mL | 0.1 µg/mL | 6.66 µg/mL | 0.027 µg/mL | 0.06 µg/mL | 2.03 µg/mL |  | 17.5 µg/mL | 0.32 µg/mL | 1.45 µg/mL |  |  | 4.55 µg/mL | 4.9 µg/mL | 0.01 µg/mL | 29.6 µg/mL | IC50 (µg/mL), pseudovirus neutralization [23]: 8.12 µg/mL; IC50 (µg/mL), pseudovirus neutralization [24]: 0.163 µg/mL; IC50 neutralization [25]: 0.687 µg/mL |
| 4838_L06 (PGT-121) (antibody) |  |  |  |  |  |  |  |  |  |  |  |  |  |  |  |  |  |  |  |  | IC50, pseudovirus neutralization [26]: 10.7 µg/mL; IC50, pseudovirus neutralization [27]: 0.01 µg/mL; IC50, pseudovirus neutralization [28]: > 50 µg/mL; IC50, pseudovirus neutralization [29]: 5.33 µg/mL; IC50 (µg/mL), pseudovirus neutralization [30]: 0.931 µg/mL; IC50 (µg/mL), pseudovirus neutralization [31]: 0.005 µg/mL; IC50 neutralization [25]: > 10 µg/mL |
| 4858_P08 (PGT-123) (antibody) |  |  |  |  |  |  |  |  |  |  |  |  |  |  |  |  |  |  |  |  | IC50, pseudovirus neutralization [26]: 3.74 µg/mL; IC50, pseudovirus neutralization [27]: 0.018 µg/mL; IC50, pseudovirus neutralization [28]: > 50 µg/mL; IC50, pseudovirus neutralization [29]: 6.89 µg/mL; IC50 (µg/mL), pseudovirus neutralization [30]: 4.95 µg/mL; IC50 (µg/mL), pseudovirus neutralization [31]: 0.004 µg/mL; IC50 neutralization [25]: > 10 µg/mL |
| 4877_D15 (PGT-122) (antibody) |  |  |  |  |  |  |  |  |  |  |  |  |  |  |  |  |  |  |  |  | IC50, pseudovirus neutralization [26]: > 50 µg/mL; IC50, pseudovirus neutralization [27]: 0.007 µg/mL; IC50, pseudovirus neutralization [28]: > 50 µg/mL; IC50, pseudovirus neutralization [29]: 3.27 µg/mL; IC50 (µg/mL), pseudovirus neutralization [30]: 4.81 µg/mL; IC50 (µg/mL), pseudovirus neutralization [31]: 0.008 µg/mL; IC50 neutralization [25]: > 10 µg/mL |
